This is an account of results in patent US20250186614A1, “COMPACT DRUG RESPONSIVE DOMAINS FOR REGULATION OF FUNCTION/ABUNDANCE AND DELIVERY OF POLYPEPTIDE PAYLOADS” (OBSIDIAN THERAPEUTICS, INC., priority 2022, published 2025).

Positions count from the first letter of the chain named. Names and notes keep the numbering of the source.

The chains are these.
B1: FKBP-237 (protein)
chain: HCPIKSRKGDVLHMHYTGKLEDGTEFDSSLPRNQPFVFSLGTGERIKGWDQGLLGMCEGEKRKLVIPSELGYNERGWPPKIPGGATLVFEVELLKIER
modifications: Description of sequence: Construct Name: FKBP-237; Mutation(s): Q72R Q84E A117W V85R DRD G113N
B2: FKBP-250 (protein)
chain: B1 chain with R45V, N73G, E90F
modifications: Description of sequence: Construct Name: FKBP-250; Mutation(s): Q72R Q84E A117W DRD E130F
B3: FKBP-244: FKBP13 DRD-AcGFP construct of Table 10 (protein)
chain: B1 chain with M14A, N73G, P78S
modifications: Description of sequence: Construct Name: FKBP-244; Mutation(s): Q72R Q84E A117W V85R DRD P118S M54A
B4: FKBP-243: FKBP13 DRD-AcGFP construct of Table 10 (protein)
chain: B1 chain with N73G, P78S
modifications: Description of sequence: Construct Name: FKBP-243; Mutation(s): Q72R Q84E A117W V85R DRD P118S
B5: FKBP-248 (protein)
chain: B1 chain with S28D, R45V, N73G
modifications: Description of sequence: Construct Name: FKBP-248; Mutation(s): Q72R Q84E A117W DRD S68D
B6: FKBP-165 (protein)
chain: B1 chain with M14A, N73G, P79V
modifications: Description of sequence: Construct Name: FKBP-165; Mutation(s): Q72R Q84E A117W DRD M54A P119V V85R
B7: FKBP-247 (protein)
chain: B1 chain with M14A, S29H, N73G
modifications: Description of sequence: Construct Name: FKBP-247; Mutation(s): Q72R Q84E A117W V85R DRD S69H M54A
B8: FKBP-240: FKBP13 DRD-AcGFP construct of Table 10 (protein)
chain: B1 chain with E21Y, N73G
modifications: Description of sequence: Construct Name: FKBP-240; Mutation(s): Q72R Q84E A117W V85R DRD E61Y
B9: FKBP-245 (protein)
chain: B1 chain with S29H, R45V, N73G
modifications: Description of sequence: Construct Name: FKBP-245; Mutation(s): Q72R Q84E A117W DRD S69H
B10: FKBP-239 (protein)
chain: B1 chain with E21Y, R45V, N73G
modifications: Description of sequence: Construct Name: FKBP-239; Mutation(s): Q72R Q84E A117W DRD E61Y
B11: FKBP-241 (protein)
chain: B1 chain with M14A, E21Y, N73G
modifications: Description of sequence: Construct Name: FKBP-241; Mutation(s): Q72R Q84E A117W V85R DRD E61Y M54A
B12: FKBP-255: FKBP13 DRD-AcGFP construct of Table 10 (protein)
chain: B1 chain with G59R, N73G
modifications: Description of sequence: Construct Name: FKBP-255; Mutation(s): Q72R Q84E A117W V85R DRD G99R
B13: FKBP-254 (protein)
chain: B1 chain with R45V, G59R, N73G
modifications: Description of sequence: Construct Name: FKBP-254; Mutation(s): Q72R Q84E A117W DRD G99R
B14: FKBP-249 (protein)
chain: B1 chain with S28D, N73G
modifications: Description of sequence: Construct Name: FKBP-249; Mutation(s): Q72R Q84E A117W V85R DRD S68D
B15: FKBP-238 (protein)
chain: B1 chain with M14A
modifications: Description of sequence: Construct Name: FKBP-238; Mutation(s): Q72R Q84E A117W V85R DRD G113N M54A
B16: FKBP-246 (protein)
chain: B1 chain with S29H, N73G
modifications: Description of sequence: Construct Name: FKBP-246; Mutation(s): Q72R Q84E A117W V85R DRD S69H
B17: FKBP-242 (protein)
chain: B1 chain with R45V, N73G, P78S
modifications: Description of sequence: Construct Name: FKBP-242; Mutation(s): Q72R Q84E A117W DRD P118S
B18: FKBP-176 (protein)
chain: B1 chain with M14A, R45V, N73G, G76E
modifications: Description of sequence: Construct Name: FKBP-176; Mutation(s): Q72R Q84E A117W DRD M54A G116E
B19: FKBP-173 (protein)
chain: B1 chain with M14A, R45V, N73G, L93G
modifications: Description of sequence: Construct Name: FKBP-173; Mutation(s): Q72R Q84E A117W DRD M54A L133G
B20: FKBP-180 (protein)
chain: B1 chain with M14A, R45V, N73G, F89T
modifications: Description of sequence: Construct Name: FKBP-180; Mutation(s): Q72R Q84E A117W DRD M54A F129T
B21: FKBP-253 (protein)
chain: B1 chain with N73G, I96P
modifications: Description of sequence: Construct Name: FKBP-253; Mutation(s): Q72R Q84E A117W V85R DRD I136P
B22: FKBP-179 (protein)
chain: B1 chain with H13G, M14A, R32L, R45V, N73G
modifications: Description of sequence: Construct Name: FKBP-179; Mutation(s): Q72R Q84E A117W DRD M54A H53G R72L
B23: FKBP-174 (protein)
chain: B1 chain with S6G, M14A, R45V, N73G, V91G
modifications: Description of sequence: Construct Name: FKBP-174; Mutation(s): Q72R Q84E A117W DRD M54A S36G V131G
B24: FKBP-175 (protein)
chain: B1 chain with D10A, M14A, T17I, R45V, N73G, I96L
modifications: Description of sequence: Construct Name: FKBP-175; Mutation(s): Q72R Q84E A117W DRD M54A D50L T57I I136L
B25: FKBP-252 (protein)
chain: B1 chain with R45V, N73G, I96P
modifications: Description of sequence: Construct Name: FKBP-252; Mutation(s): Q72R Q84E A117W DRD I136P

A short description of the first assay: Example 4: dose response of FKBP constructs 160-255, Ec50, Ec90 and fold change (raw and normalized to mCherry). The format is cell-based. The conditions noted are these: FKBP constructs 160-255; not normalized; read-out: EC90. How it is done: Additional experiments were performed for constructs FKBP-160-292.
For B1, the 90% effect concentration (EC90) is 550 nM.

Turning to B2, the EC90 was 101 nM.

As for B3, the EC90 was 307 nM.

As for B4, the concentration for an effect of 90% (EC90) stood at 125 nM.

On to B5, for which the concentration for an effect of 90% (EC90) is 1800 nM.

For the molecule B6, the EC90 was 970 nM.

For the molecule B7, the EC90 came out at 2810 nM.

Regarding B8, the concentration for an effect of 90% (EC90) worked out at 111 nM.

In the case of B9, the EC90 is 5830 nM.

Regarding B10, the concentration for an effect of 90% (EC90) was 223 nM.

Turning to B11, the 90% effect concentration (EC90) is 221 nM.

In the case of B12, the EC90 turned out to be 101 nM.

With B13, the 90% effect concentration (EC90) was determined as 369 nM.

For the molecule B14, the EC90 came to 472 nM.

In the case of B15, the EC90 was 846 nM.

For B16, the concentration for an effect of 90% (EC90) came to 1530 nM.

B17: the 90% effect concentration (EC90) is 466 nM.

The assay is the same for the next values; noted with them: fold change during initial analysis.
Turning to B1, the “FC (fold change)” value is listed as 24.1.

With B2, the “FC (fold change)” value was found to be 22.0.

B3: the “FC (fold change)” value was 51.2.

On to B4, for which the “FC (fold change)” value is on record as 37.1.

As to B5, the “FC (fold change)” value amounted to 50.1.

Consider B18, for which the “FC (fold change)” value amounted to 6.8.

With B19, the “FC (fold change)” value was found to be 4.

Regarding B20, the “FC (fold change)” value is 1.2.

In the case of B6, the “FC (fold change)” value amounted to 47.6.

Regarding B21, the “FC (fold change)” value was 2.3.

Consider B7, for which the “FC (fold change)” value was 35.0.

For B8, the “FC (fold change)” value is recorded as 43.7.

Regarding B9, the “FC (fold change)” value is on record as 40.6.

Consider B22, for which the “FC (fold change)” value is on record as 3.1.

For the molecule B23, the “FC (fold change)” value worked out at 0.9.

As to B24, the “FC (fold change)” value turned out to be 7.25.

As to B25, the “FC (fold change)” value was determined as 1.3.

Regarding B10, the “FC (fold change)” value is listed as 31.1.

On to B11, for which the “FC (fold change)” value is reported as 43.9.

B12: the “FC (fold change)” value came to 33.0.

Take B13: the “FC (fold change)” value is given as 35.6.

B14: the “FC (fold change)” value is 33.7.

For B15, the “FC (fold change)” value worked out at 26.8.

As for B16, the “FC (fold change)” value is listed as 30.4.

For the molecule B17, the “FC (fold change)” value amounted to 24.4.

Still in this assay, the particulars now being: normalized to mCherry; read-out: EC90 (Norm).
As for B1, the concentration for an effect of 90% (EC90) was found to be 484 nM.

Turning to B2, the EC90 amounted to 114 nM.

As to B3, the EC90 is 328 nM.

With B4, the concentration for an effect of 90% (EC90) was 127 nM.

Take B5: the 90% effect concentration (EC90) came to 1880 nM.

On to B6, for which the concentration for an effect of 90% (EC90) stood at 984 nM.

In the case of B7, the 90% effect concentration (EC90) is 2950 nM.

On to B8, for which the EC90 turned out to be 111 nM.

Consider B9, for which the concentration for an effect of 90% (EC90) was found to be 5870 nM.

With B10, the EC90 was 243 nM.

Consider B11, for which the EC90 was 222 nM.

Turning to B12, the concentration for an effect of 90% (EC90) is 101 nM.

As to B13, the EC90 is 373 nM.

Take B14: the concentration for an effect of 90% (EC90) was found to be 494 nM.

Consider B15, for which the EC90 amounted to 863 nM.

For the molecule B16, the EC90 was determined as 1520 nM.

On to B17, for which the concentration for an effect of 90% (EC90) was 539 nM.
